Experimental data taken from paper doi:10.1101/2021.01.27.428466 (bioRxiv, 2021).

Molecular target: T1, receptor-binding domain (RBD) of the spike protein of SARS-CoV-2 (SARS-CoV-2, UniProt P0DTC2)
T1 construct: also called re-engineered RBD
Assay: SEC
Settings: both partners purified

B1: Sb16 (VHH)
VHH: QVQLVESGGGLVQAGGSLRLSCAASGFPVAYKTMWWYRQAPGKEREWVAAIESYGIKWTRYADSVKGRFTISRDNAKNTVYLQMNSLKPEDTAVYYCIVWVGAQYHGQGTQVTVSA
B1: binds.
